In US20070254831A1 (published 2007):
Read-outs that look alike come from different tables or passages of the source. Bridge positions count the residues as written; N and C are the ends. Square brackets hold non-standard residues; d marks the D form. Ends that are not written are not given here. Pen = CC(C)(S)[C@H](N)C(=O)O; Dab = NCC[C@H](N)C(=O)O

Legend:
soluble human FcRn [1] = molecular target: T1, soluble human FcRn (human, UniProt P55899 24-297; P61769 21-119, biotinylated (Sulfo-NHS-LC-Biotin) in the ELISA; amine-coupled to CM5 chip in SPR); assay: SPR, pH 6
T1 construct: also called shFcRn; biotinylated shFcRn
T1 sequence (P55899 24-297 limits assumed, chain 1 of 2): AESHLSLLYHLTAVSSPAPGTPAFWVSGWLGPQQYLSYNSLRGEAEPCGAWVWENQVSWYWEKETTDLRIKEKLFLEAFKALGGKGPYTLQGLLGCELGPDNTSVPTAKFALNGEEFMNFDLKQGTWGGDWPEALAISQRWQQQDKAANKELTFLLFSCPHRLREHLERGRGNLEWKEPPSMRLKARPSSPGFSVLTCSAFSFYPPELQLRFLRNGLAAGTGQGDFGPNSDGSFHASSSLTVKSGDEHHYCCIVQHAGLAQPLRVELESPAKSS
T1 sequence (P61769 21-119 limits assumed, chain 2 of 2): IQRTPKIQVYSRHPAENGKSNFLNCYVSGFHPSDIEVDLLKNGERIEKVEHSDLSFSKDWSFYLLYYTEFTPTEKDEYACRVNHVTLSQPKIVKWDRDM
Procedure: (§1) The following steps were performed to cross-link soluble human or cynomolgus FcRn to the dextran surface of a CM5 sensor chip (Biacore AB, Uppsala, Sweden) by an amine coupling reaction involving 1-ethyl-(3-dimethylaminopropyl)-carbodiimide hydrochloride (EDC) (Biacore AB, Uppsala, Sweden) and N-hydroxysuccinimide (NHS) (Biacore AB, Uppsala, Sweden) as recommended by Biacore (BIAapplications Handbook, version AB, section 4.2, Biacore AB, Uppsala, Sweden). […] Residual sites on the FcRn flow cell were blocked with 1 M ethanolamine hydrochloride pH 8.5 (Biacore AB, Uppsala, Sweden). A control flow cell was blocked with ethanolamine for reference subtraction. For analysis of the monomeric peptides, FcRn was coated to a final density of 4000-5000 response units (RU). For analysis of the peptide dimers, FcRn was coated to a density of 2000-2500 RU. All SPR measurements were performed using a BIACORE 3000 Instrument (Biacore AB Uppsala, Sweden). For measurements done at either pH 6 or pH 7.4, experiments were performed in 50 mM phosphate, 100 mM sodium chloride, 0.01% surfactant P20 (Biacore AB, Uppsala, Sweden).
(§2) Ten, 2-fold dilutions of the peptide were injected over the FcRn-CM5 chip at a rate of 20 μl/min for 2 min. The peptide was dissociated from the chip for 2.5 minutes with buffer. Any remaining peptide was removed from the chip with a 30 second injection of HBS-P buffer (Biacore AB, Uppsala, Sweden) at a rate of 30 μl/min. Sensorgrams were generated and analyzed using BiaEval software version 3.1 (Biacore AB, Uppsala, Sweden). The equilibrium RU observed for each injection was plotted against concentration. The equilibrium KD values were derived by analysis of the plots using the steady state affinity model included in the BiaEval software.

soluble human FcRn [2] = molecular target: T1, soluble human FcRn; assay: ELISA, competitor human IgG
Procedure: (§3) The wells were coated with 100 μl/well of 1 μg/ml biotinylated-shFcRn in Buffer A. The plate was sealed and incubated at 37° C. for 2 hours. Afterwards, the plate washed with 200 μl/well of Buffer B (Buffer B: 100 mM MES pH 6, 150 mM NaCl, 0.5% BSA IgG-free (Jackson ImmunoResearch, West Grove, Pa.), 0.05% Tween-20). […] To allow for mixing, the plate was rocked for 2 minutes, sealed and incubated at 37° C. for 2 hours. […] The plate was covered, incubated for 30 minutes at room temperature and washed 4 times with 200 μl/well of ice-cold buffer B. SureBlue TMB substrate solution (100 μl/well, KPL, Gaithersburg, Md.) was added and the plate was allowed to incubate at room temperature until color developed, which took 5 to 10 minutes. Once color developed, 100 μl/well of TMB stop solution (KPL, Gaithersburg, Md.) was added and the absorbance was measured at 450 nm. The data was plotted as absorbance vs. peptide concentration to derive the inhibitory concentration 50% (IC₅₀) values.

soluble human FcRn [3] = molecular target: T1, soluble human FcRn; assay: ELISA, competitor human IgG; remark: listed apart in the source
Procedure: as §3

soluble human FcRn [4] = molecular target: T1, soluble human FcRn; assay: SPR, pH 6; remark: listed apart in the source
Procedure: as §1, §2

soluble human FcRn [5] = molecular target: T1, soluble human FcRn; assay: ELISA, competitor human IgG; remark: listed apart in the source
Procedure: as §3

Binder	Kd (soluble human FcRn [1]) [µM]	IC50 (soluble human FcRn [2]) [µM]	also measured
QRFXTGHFXGLYPCNGP (Pen at 4; Aib at 9; disulfide; C-terminal amide) [Peptide No. 54]	5.2	17	–
RFXTGXFGGLYPC (Pen at 3; Thz(Me) (N-methyl-thiazolium) at 6; Sar at 9; NMeLeu at 10; disulfide; -CONH2) [Peptide No. 269]	–	–	IC50 (soluble human FcRn [3]): 2.4 µM
RFXTGAFGGLYPC (Pen at 3; Sar at 9; NMeLeu at 10; disulfide; C-terminal amide) [Peptide No. 266]	–	–	Kd (soluble human FcRn [4]): 9.9 µM; IC50 (soluble human FcRn [3]): > 100 µM
RFXTGXFGGLYPC (Pen at 3; 2-PyrrolidinylAla at 6; Sar at 9; NMeLeu at 10; disulfide; C-terminal amide) [Peptide No. 262]	–	–	Kd (soluble human FcRn [4]): 8.4 µM
RFXTGXFGGLYPC (Pen at 3; triazolylAla at 6; Sar at 9; NMeLeu at 10; disulfide; C-terminal amide) [Peptide No. 271]	–	–	IC50 (soluble human FcRn [3]): 5.7 µM
RFXTGXFGGLYPC (not fully specified; Pen at 3; Thz at 6; Sar at 9; NMeLeu at 10; disulfide; C-terminal amide) [Peptide No. 248]	–	–	Kd (soluble human FcRn [4]): 0.84 µM; IC50 (soluble human FcRn [3]): 1.6 µM
RFXTGXFGGLYPC (Pen at 3; 4aminoPhe at 6; Sar at 9; NMeLeu at 10; disulfide; C-terminal amide) [Peptide No. 258]	–	–	IC50 (soluble human FcRn [3]): 4.6 µM
RFXTGXFGGLYPC (Pen at 3; Orn at 6; Sar at 9; NMeLeu at 10; disulfide; C-terminal amide) [Peptide No. 254]	–	–	Kd (soluble human FcRn [4]): 1.3 µM
QRFXTGXFGGLYPCNGP (Pen at 4; (1Me)His at 7; disulfide; C-terminal amide) [Peptide No. 138]	–	–	Kd (soluble human FcRn [4]): 0.74 µM; IC50 (soluble human FcRn [3]): 3.4 µM
QRFXTGHFGYLYPCNGP (Pen at 4; D-Tyr at 10; disulfide; C-terminal amide) [Peptide No. 45]	1.5	–	–
QRFXTGHFPPLYPCNGP (Pen at 4; D-Pro at 9 and 10; disulfide; C-terminal amide) [Peptide No. 152]	–	21	–
QRFXTGHFRGLYPCNGP (Pen at 4; D-Arg at 9; disulfide; C-terminal amide) [Peptide No. 49]	–	4.1	–
QRFXTGHFAGLYPCNGP (Pen at 4; D-Ala at 9; Sar at 10; disulfide; C-terminal amide) [Peptide No. 189]	0.19	–	–
QRFXTGHFFGLYPCNGP (Pen at 4; D-Phe at 9; NMeLeu at 11; disulfide; C-terminal amide) [Peptide No. 153]	0.24	1.3	–
QRFXTGHFPGLYPCNGP (Pen at 4; D-Pro at 9; disulfide; C-terminal amide) [Peptide No. 48]	–	5	–
QRFXTGHFAGLYPCNGP (Pen at 4; D-Ala at 9; disulfide; C-terminal amide) [Peptide No. 75]	0.49	–	–

Binder	Kd (soluble human FcRn [1]) [µM]	IC50 (soluble human FcRn [2]) [µM]	also measured
QRF[Pen]TGHF[dF]GPYPCNGP-NH2 (disulfide 4-14; N-terminus assumed; SMILES C[C@@H](O)[C@@H]1NC(=O)[C@@H](NC(=O)[C@H](Cc2ccccc2)NC(=O)[C@H](CCCNC(=N)N)NC(=O)[C@@H](N)CCC(N)=O)C(C)(C)SSC[C@@H](C(=O)N[C@@H](CC(N)=O)C(=O)NCC(=O)N2CCC[C@H]2C(N)=O)NC(=O)[C@@H]2CCCN2C(=O)[C@H](Cc2ccc(O)cc2)NC(=O)[C@@H]2CCCN2C(=O)CNC(=O)[C@@H](Cc2ccccc2)NC(=O)[C@H](Cc2ccccc2)NC(=O)[C@H](Cc2c[nH]cn2)NC(=O)CNC1=O) [Peptide No. 155]	18.3	39	–
QRF[Pen]TGHF[dA][dP]LYPCNGP-NH2 (disulfide 4-14; N-terminus assumed; SMILES CC(C)C[C@@H]1NC(=O)[C@H]2CCCN2C(=O)[C@@H](C)NC(=O)[C@H](Cc2ccccc2)NC(=O)[C@H](Cc2c[nH]cn2)NC(=O)CNC(=O)[C@H]([C@@H](C)O)NC(=O)[C@@H](NC(=O)[C@H](Cc2ccccc2)NC(=O)[C@H](CCCNC(=N)N)NC(=O)[C@@H](N)CCC(N)=O)C(C)(C)SSC[C@@H](C(=O)N[C@@H](CC(N)=O)C(=O)NCC(=O)N2CCC[C@H]2C(N)=O)NC(=O)[C@@H]2CCCN2C(=O)[C@H](Cc2ccc(O)cc2)NC1=O) [Peptide No. 149]	–	3.7	–
QRFXTGHFFPLYPCNGP (Pen at 4; D-Phe at 9; D-Pro at 10; disulfide; C-terminal amide) [Peptide No. 150]	0.72	5.9	–
QRFXTGHFFPLYPCNGP (Pen at 4; D-Phe at 9 (L-Pro at 10); disulfide; C-terminal amide) [Peptide No. 203]	3.8	–	–
QRFXTGHFAALYPCNGP (Pen at 4; D-Ala at 9 and 10; disulfide; C-terminal amide) [Peptide No. 148]	0.45	–	–
QRF[Pen]TGHF[dF][dA]LYPCNGP-NH2 (disulfide 4-14; N-terminus assumed; SMILES CC(C)C[C@@H]1NC(=O)[C@@H](C)NC(=O)[C@@H](Cc2ccccc2)NC(=O)[C@H](Cc2ccccc2)NC(=O)[C@H](Cc2c[nH]cn2)NC(=O)CNC(=O)[C@H]([C@@H](C)O)NC(=O)[C@@H](NC(=O)[C@H](Cc2ccccc2)NC(=O)[C@H](CCCNC(=N)N)NC(=O)[C@@H](N)CCC(N)=O)C(C)(C)SSC[C@@H](C(=O)N[C@@H](CC(N)=O)C(=O)NCC(=O)N2CCC[C@H]2C(N)=O)NC(=O)[C@@H]2CCCN2C(=O)[C@H](Cc2ccc(O)cc2)NC1=O) [Peptide No. 151]	–	4.3	–
QRFXTGHFHGLYPCNGP (Pen at 4; D-His at 9; disulfide; C-terminal amide) [Peptide No. 50]	–	3.6	–
QRFXTGHFGALYPCNGP (Pen at 4; D-Ala at 10; disulfide; C-terminal amide) [Peptide No. 74]	0.48	2	–
QRFXTGHFFGLYPCNGP (Pen at 4; D-Phe at 9; disulfide; C-terminal amide) [Peptide No. 52]	0.51	2.8	–
QRFXTGXFGGLYPCNGP (Pen at 4; Thz at 7; disulfide; C-terminal amide) [Peptide No. 91]	–	–	IC50 (soluble human FcRn [3]): 44 µM
QRFVTGHFG[dP]LYPANGP-NH2 (N-terminus assumed; SMILES CC(C)C[C@H](NC(=O)[C@H]1CCCN1C(=O)CNC(=O)[C@H](Cc1ccccc1)NC(=O)[C@H](Cc1c[nH]cn1)NC(=O)CNC(=O)[C@@H](NC(=O)[C@@H](NC(=O)[C@H](Cc1ccccc1)NC(=O)[C@H](CCCNC(=N)N)NC(=O)[C@@H](N)CCC(N)=O)C(C)C)[C@@H](C)O)C(=O)N[C@@H](Cc1ccc(O)cc1)C(=O)N1CCC[C@H]1C(=O)N[C@@H](C)C(=O)N[C@@H](CC(N)=O)C(=O)NCC(=O)N1CCC[C@H]1C(N)=O) [Peptide No. 157]	–	–	IC50 (soluble human FcRn [5]): 195 µM
QRFVTGHFG[dP]IYPANGP-NH2 (N-terminus assumed; SMILES CC[C@H](C)[C@H](NC(=O)[C@H]1CCCN1C(=O)CNC(=O)[C@H](Cc1ccccc1)NC(=O)[C@H](Cc1c[nH]cn1)NC(=O)CNC(=O)[C@@H](NC(=O)[C@@H](NC(=O)[C@H](Cc1ccccc1)NC(=O)[C@H](CCCNC(=N)N)NC(=O)[C@@H](N)CCC(N)=O)C(C)C)[C@@H](C)O)C(=O)N[C@@H](Cc1ccc(O)cc1)C(=O)N1CCC[C@H]1C(=O)N[C@@H](C)C(=O)N[C@@H](CC(N)=O)C(=O)NCC(=O)N1CCC[C@H]1C(N)=O) [Peptide No. 174]	–	–	IC50 (soluble human FcRn [5]): 94 µM
QRFVTGHFG[dP]FYPANGP-NH2 (N-terminus assumed; SMILES CC(C)[C@H](NC(=O)[C@H](Cc1ccccc1)NC(=O)[C@H](CCCNC(=N)N)NC(=O)[C@@H](N)CCC(N)=O)C(=O)N[C@H](C(=O)NCC(=O)N[C@@H](Cc1c[nH]cn1)C(=O)N[C@@H](Cc1ccccc1)C(=O)NCC(=O)N1CCC[C@@H]1C(=O)N[C@@H](Cc1ccccc1)C(=O)N[C@@H](Cc1ccc(O)cc1)C(=O)N1CCC[C@H]1C(=O)N[C@@H](C)C(=O)N[C@@H](CC(N)=O)C(=O)NCC(=O)N1CCC[C@H]1C(N)=O)[C@@H](C)O) [Peptide No. 175]	–	–	IC50 (soluble human FcRn [5]): 200 µM
QRFVTGHFG[dP]LYPLNGP-NH2 (N-terminus assumed; SMILES CC(C)C[C@H](NC(=O)[C@H]1CCCN1C(=O)CNC(=O)[C@H](Cc1ccccc1)NC(=O)[C@H](Cc1c[nH]cn1)NC(=O)CNC(=O)[C@@H](NC(=O)[C@@H](NC(=O)[C@H](Cc1ccccc1)NC(=O)[C@H](CCCNC(=N)N)NC(=O)[C@@H](N)CCC(N)=O)C(C)C)[C@@H](C)O)C(=O)N[C@@H](Cc1ccc(O)cc1)C(=O)N1CCC[C@H]1C(=O)N[C@@H](CC(C)C)C(=O)N[C@@H](CC(N)=O)C(=O)NCC(=O)N1CCC[C@H]1C(N)=O) [Peptide No. 168]	–	–	IC50 (soluble human FcRn [5]): 100 µM
RFXTGXFGGLYPC (Pen at 3; PropargylGly at 6; Sar at 9; NMeLeu at 10; disulfide; C-terminal amide) [Peptide No. 261]	–	–	IC50 (soluble human FcRn [3]): 160 µM
QRFCTG[Dab]FGGLYPCNGP-NH2 (disulfide 4-14; N-terminus assumed; SMILES CC(C)C[C@@H]1NC(=O)CNC(=O)CNC(=O)[C@H](Cc2ccccc2)NC(=O)[C@H](CCN)NC(=O)CNC(=O)[C@H]([C@@H](C)O)NC(=O)[C@@H](NC(=O)[C@H](Cc2ccccc2)NC(=O)[C@H](CCCNC(=N)N)NC(=O)[C@@H](N)CCC(N)=O)CSSC[C@@H](C(=O)N[C@@H](CC(N)=O)C(=O)NCC(=O)N2CCC[C@H]2C(N)=O)NC(=O)[C@@H]2CCCN2C(=O)[C@H](Cc2ccc(O)cc2)NC1=O) [Peptide No. 36]	–	–	IC50 (soluble human FcRn [3]): > 125 µM
